Measurements from patent US20210403549A1.

Target: low density lipoprotein (LDL) (UniProt P04114)
Assay: bio-layer interferometry with LDL; beside the traces: clear dose-dependent binding

Chain of low density lipoprotein (LDL) (P04114 28-4563 limits assumed): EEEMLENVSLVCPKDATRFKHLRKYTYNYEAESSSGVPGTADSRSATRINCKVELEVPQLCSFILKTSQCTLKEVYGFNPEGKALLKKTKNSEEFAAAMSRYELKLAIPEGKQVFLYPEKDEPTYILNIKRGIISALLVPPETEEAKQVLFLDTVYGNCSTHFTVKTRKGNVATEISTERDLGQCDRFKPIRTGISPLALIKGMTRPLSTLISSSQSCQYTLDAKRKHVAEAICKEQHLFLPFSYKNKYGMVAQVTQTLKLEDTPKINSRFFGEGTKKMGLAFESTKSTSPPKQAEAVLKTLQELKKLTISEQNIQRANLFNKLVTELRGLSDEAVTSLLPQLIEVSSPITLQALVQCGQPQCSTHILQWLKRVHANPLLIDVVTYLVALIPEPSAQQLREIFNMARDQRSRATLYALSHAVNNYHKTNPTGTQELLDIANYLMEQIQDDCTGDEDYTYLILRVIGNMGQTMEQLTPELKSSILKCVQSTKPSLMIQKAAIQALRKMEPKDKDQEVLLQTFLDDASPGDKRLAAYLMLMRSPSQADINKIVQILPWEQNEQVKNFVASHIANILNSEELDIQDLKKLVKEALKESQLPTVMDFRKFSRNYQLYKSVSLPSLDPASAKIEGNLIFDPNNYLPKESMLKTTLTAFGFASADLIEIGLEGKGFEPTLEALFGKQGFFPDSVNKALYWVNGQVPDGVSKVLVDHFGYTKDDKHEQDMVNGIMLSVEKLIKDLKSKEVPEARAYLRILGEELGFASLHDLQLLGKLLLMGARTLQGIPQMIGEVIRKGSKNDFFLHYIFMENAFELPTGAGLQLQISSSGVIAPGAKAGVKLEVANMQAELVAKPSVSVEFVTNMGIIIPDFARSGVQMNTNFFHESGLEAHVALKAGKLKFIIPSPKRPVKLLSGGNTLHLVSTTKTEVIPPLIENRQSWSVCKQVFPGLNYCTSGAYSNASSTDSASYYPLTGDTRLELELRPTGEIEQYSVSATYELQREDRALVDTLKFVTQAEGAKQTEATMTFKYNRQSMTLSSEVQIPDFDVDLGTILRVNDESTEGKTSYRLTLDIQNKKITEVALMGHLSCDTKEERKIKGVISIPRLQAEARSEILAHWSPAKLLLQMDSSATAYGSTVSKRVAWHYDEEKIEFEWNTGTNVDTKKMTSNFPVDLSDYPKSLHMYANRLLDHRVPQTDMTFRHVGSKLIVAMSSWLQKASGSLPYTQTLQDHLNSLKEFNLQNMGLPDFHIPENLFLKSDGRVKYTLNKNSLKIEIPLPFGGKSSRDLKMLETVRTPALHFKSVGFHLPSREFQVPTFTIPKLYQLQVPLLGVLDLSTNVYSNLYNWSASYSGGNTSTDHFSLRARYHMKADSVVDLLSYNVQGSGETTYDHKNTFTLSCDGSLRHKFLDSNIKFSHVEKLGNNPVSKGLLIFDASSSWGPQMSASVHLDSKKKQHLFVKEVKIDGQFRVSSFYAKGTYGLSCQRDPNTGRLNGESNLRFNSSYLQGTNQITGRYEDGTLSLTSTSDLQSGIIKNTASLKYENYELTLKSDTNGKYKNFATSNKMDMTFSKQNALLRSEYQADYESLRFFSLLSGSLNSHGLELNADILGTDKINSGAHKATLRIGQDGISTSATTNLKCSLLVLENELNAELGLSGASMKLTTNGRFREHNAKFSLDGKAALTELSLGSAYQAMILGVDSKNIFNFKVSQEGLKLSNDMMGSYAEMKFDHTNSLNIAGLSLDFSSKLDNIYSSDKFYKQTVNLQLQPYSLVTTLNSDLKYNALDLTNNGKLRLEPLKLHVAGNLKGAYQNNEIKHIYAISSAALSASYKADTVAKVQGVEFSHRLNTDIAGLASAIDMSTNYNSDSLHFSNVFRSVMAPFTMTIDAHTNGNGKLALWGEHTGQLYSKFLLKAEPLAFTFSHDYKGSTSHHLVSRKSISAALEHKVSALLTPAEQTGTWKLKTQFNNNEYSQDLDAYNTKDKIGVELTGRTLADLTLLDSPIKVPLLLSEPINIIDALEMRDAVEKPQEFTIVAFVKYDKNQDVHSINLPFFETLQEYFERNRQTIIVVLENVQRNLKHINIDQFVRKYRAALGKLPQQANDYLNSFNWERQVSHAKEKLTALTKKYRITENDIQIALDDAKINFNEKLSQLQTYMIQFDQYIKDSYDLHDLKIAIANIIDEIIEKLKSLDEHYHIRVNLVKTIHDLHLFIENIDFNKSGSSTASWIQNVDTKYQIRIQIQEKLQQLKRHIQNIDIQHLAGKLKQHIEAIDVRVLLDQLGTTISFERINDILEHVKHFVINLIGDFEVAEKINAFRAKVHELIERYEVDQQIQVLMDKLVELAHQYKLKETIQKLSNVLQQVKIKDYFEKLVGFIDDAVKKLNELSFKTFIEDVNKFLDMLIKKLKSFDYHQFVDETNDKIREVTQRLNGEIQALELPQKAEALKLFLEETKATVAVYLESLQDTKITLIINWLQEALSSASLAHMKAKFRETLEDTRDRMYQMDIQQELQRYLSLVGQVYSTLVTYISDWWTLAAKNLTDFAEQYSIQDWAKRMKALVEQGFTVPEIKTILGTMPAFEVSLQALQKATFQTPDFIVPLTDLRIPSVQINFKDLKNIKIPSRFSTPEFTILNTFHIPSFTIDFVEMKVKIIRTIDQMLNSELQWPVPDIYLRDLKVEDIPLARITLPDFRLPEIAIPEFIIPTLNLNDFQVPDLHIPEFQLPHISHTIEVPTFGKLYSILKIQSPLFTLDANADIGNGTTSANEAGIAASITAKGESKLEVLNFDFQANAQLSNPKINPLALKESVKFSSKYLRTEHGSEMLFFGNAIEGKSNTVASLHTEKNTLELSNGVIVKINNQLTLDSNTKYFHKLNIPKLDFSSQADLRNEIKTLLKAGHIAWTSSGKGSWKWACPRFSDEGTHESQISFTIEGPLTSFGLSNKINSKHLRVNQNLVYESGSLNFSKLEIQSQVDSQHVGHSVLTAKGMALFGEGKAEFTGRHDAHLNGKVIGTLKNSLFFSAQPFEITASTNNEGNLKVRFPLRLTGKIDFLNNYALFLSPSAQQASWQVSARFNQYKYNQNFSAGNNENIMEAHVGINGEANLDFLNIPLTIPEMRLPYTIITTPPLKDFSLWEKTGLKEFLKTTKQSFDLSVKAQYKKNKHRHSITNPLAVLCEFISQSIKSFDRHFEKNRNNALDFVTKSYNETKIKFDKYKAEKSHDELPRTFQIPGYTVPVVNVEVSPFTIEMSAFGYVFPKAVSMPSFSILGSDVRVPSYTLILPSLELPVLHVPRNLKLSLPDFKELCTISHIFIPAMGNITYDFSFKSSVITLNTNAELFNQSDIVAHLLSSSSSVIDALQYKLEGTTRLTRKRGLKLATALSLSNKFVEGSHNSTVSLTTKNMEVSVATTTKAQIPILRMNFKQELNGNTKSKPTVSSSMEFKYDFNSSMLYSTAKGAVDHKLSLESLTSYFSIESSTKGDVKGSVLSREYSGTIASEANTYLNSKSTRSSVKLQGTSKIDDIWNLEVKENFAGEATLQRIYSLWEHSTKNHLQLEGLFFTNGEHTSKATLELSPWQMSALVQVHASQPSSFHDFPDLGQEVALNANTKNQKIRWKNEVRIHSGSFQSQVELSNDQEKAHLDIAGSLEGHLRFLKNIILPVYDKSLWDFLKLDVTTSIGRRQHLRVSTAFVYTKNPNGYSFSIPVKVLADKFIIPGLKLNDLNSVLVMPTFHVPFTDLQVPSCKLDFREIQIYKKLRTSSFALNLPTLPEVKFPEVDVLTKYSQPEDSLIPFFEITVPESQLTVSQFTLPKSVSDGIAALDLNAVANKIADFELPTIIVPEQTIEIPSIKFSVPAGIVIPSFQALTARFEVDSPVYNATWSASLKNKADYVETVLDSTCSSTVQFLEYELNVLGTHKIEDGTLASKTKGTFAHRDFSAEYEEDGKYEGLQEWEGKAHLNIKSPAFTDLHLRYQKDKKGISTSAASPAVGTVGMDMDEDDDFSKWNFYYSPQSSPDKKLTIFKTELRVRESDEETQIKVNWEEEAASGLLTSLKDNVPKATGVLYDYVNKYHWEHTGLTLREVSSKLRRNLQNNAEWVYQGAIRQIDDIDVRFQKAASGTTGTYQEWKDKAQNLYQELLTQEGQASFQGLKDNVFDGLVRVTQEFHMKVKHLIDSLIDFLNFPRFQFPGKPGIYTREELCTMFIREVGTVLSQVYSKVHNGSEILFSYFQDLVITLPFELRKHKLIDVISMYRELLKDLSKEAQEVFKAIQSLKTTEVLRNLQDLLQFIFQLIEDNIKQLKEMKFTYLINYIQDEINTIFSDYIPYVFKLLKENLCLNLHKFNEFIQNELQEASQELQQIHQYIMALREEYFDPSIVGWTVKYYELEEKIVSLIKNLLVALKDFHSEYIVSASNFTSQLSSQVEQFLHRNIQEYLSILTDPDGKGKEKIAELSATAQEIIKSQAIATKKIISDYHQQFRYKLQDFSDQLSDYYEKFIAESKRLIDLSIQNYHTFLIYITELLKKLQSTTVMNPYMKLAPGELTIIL

Question: For ALK1-E75A-hsIgG-Fc (Fc fusion), which Kd is on record?
Answer: Its Kd is 525 nM.
